By stoichiometry N is commonly meant the number of molecules, sites or subunits per partner or assembly.

The target of series [1] is Mtb SufR_(6-229)-His6 (Mycobacterium tuberculosis H37Rv). Put plainly: cryo-EM structure.
The next series deals with T1, SufR-R75M (Mycobacterium tuberculosis H37Rv, UniProt O53151 30-253, R99M).
T1 sequence: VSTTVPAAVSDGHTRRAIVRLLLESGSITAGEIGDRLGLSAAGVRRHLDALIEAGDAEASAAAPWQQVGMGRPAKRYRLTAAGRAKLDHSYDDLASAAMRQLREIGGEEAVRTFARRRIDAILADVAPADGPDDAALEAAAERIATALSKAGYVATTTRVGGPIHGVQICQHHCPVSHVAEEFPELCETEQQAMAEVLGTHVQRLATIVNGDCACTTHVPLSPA
Put plainly: EMSA. For orientation: In EMSA bound probe runs differently from free probe, usually more slowly.

Another series deals with T2, SufR-M2 (AT-hook mutant) (Mycobacterium tuberculosis H37Rv, UniProt O53151 30-253, R99A;R101A).
T2 sequence: T1 sequence with M70A, R72A
Put plainly: EMSA.

The target of series [2] is T3, SufR-M1 (RRH motif mutant) (Mycobacterium tuberculosis H37Rv, UniProt O53151 30-253, R74A;R75A;H76A).
T3 sequence: T1 sequence with R45A, R46A, H47A, M70R
Put plainly: EMSA.

Another series concerns the target T4, SufR-R51A (Mycobacterium tuberculosis H37Rv, UniProt O53151 30-253, R75A).
T4 sequence: T1 sequence with R46A, M70R
As to the kind of experiment: EMSA.

Series [3] addresses T5, SufR6-229-His6 (holo, [4Fe-4S]) (Mycobacterium tuberculosis H37Rv, UniProt O53151 30-253).
T5 sequence: T1 sequence with M70R
Put plainly: EMSA.

For series [4], the target named is T5, SufR6-229-His6 (holo, [4Fe-4S]). Put plainly: EMSA. This is another data set of the same source.

Where a chain is given by its changes, count along the chain named. Read-outs that look alike come from different tables or passages of the source.

As for “Mtb SufR_(6-229)-His6 (domain or fragment)”, the stoichiometry N in series [1] came to 2.

B1: PsufR 50-bp (dsDNA)
DNA 1: CCGATCAACGGAATTTTGTCACACTGATGTTGTGAAAATCCCGGCGGTCT
DNA 2: AGACCGCCGGGATTTTCACAACATCAGTGTGACAAAATTCCGTTGATCGG
For B1, the binding result in the series with SufR-R75M is reported as “binds”; with SufR-M2 (AT-hook mutant), “no binding”; in series [2] it was “no binding”; in the series with SufR-R51A, “no binding”.

B2: PsufR-DM (dsDNA)
DNA 1: B1 DNA 1 with T14C, T16G, A36C, A38G
DNA 2: B1 DNA 2 with T13C, T15G, A35C, A37G
For the molecule B2, the binding result in series [3] is given as “no binding”.

B3: PsufR-PM (dsDNA)
DNA 1: CCGATCAACGGAATTTTGTCGAAGTGATGTCACTAAAATCCCGGCGGTCT
DNA 2: AGACCGCCGGGATTTTAGTGACATCACTTCGACAAAATTCCGTTGATCGG
As to B3, the binding result in series [4] was “binds”.

(Values after article doi:10.64898/2025.12.26.696629.)
